Results: patent US20260132182A1 (published 2026)
Starred links: 1 amine or outer side, 2 acyl side, 3 side chain; linkers in the order of their positions; H or OH if unused. Non-standard residues stand in square brackets, D forms with d. Groups on a side chain read outwards from the residue. *: point of attachment. C20 diacid = O=C(O)CCCCCCCCCCCCCCCCCCC(=O)*; C18 diacid = O=C(O)CCCCCCCCCCCCCCCCC(=O)*; C16 diacid = O=C(O)CCCCCCCCCCCCCCC(=O)*; γGlu = O=C(O)[C@H](CCC(=O)[*:2])N[*:1]; C14 diacid = O=C(O)CCCCCCCCCCCCC(=O)*; Desaminohistidyl = O=C(CCc1c[nH]cn1)*; εLys = N[C@@H](CCCCN[*:1])C(=O)[*:2]; Trx = NC[C@H]1CC[C@H](C(=O)O)CC1; AEEA = NCCOCCOCC(=O)O; Aib = CC(C)(N)C(=O)O

T1: human amylin-3 (a) receptor (human, UniProt P30988 25-474; O60896 24-148)
T1 sequence (looked up) 1: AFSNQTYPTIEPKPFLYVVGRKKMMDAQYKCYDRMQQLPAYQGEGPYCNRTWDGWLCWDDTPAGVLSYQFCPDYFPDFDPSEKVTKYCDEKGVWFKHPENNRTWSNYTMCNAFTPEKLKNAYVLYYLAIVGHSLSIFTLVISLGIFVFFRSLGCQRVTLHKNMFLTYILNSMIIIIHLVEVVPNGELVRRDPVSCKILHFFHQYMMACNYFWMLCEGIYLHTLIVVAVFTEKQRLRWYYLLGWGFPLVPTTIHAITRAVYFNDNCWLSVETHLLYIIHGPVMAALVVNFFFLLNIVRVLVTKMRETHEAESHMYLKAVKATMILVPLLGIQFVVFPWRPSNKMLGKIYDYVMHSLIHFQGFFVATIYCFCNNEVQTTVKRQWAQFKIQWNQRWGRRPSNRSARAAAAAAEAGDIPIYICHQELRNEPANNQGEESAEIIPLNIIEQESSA
T1 sequence (looked up) 2: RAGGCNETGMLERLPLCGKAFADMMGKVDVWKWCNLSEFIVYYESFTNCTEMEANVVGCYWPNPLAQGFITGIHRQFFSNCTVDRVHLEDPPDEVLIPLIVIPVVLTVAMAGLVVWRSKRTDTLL


Legend:
[1] = biological target: human GLP-1 receptor (human, UniProt P43220 24-463); assay: cell-based or functional assay
[2] = biological target: T1, human amylin-3 (a) receptor; assay: cell-based or functional assay

Binder	Human GLP-1R potency [EC50 (pM)] [1] [pM]	Human AmyR3 potency [EC50 (pM)] [2] [pM]
Compound 0472 (peptide) peptide: HAEGTFTSDVSSYLEEK([AEEA-AEEA-γGlu-C18 diacid])AAREFIEWLVRGRGEASELSTAALGRLSAELHELATLPRTETGSGSP-NH2	2.8	24
Compound 0484 (peptide) peptide: H[Aib]EGTFTSDVSK([AEEA-AEEA-γGlu-C14 diacid])YLEEQAVREFIAK([AEEA-AEEA-γGlu-C14 diacid])LVRGRGGGEASELSTAALGRLSAELHELATLPRTETGSGSP-NH2	72.8	32.5
Compound 0440 (peptide) peptide: H[Aib]EGTFTSDK([AEEA-AEEA-γGlu-Trx-C20 diacid])SSYLEEQAAREFIEWLVRGRGEASELSTAALGRLSAELHELATLPRTETGSGSP-NH2	5.7	10.4
Compound 0437 (peptide) peptide: HWEGTFTSDVSSYLEEQAARK([εLys-AEEA-AEEA-γGlu-Trx-C20 diacid])FIEWLVRGRGEASELSTAALGRLSAELHELATLPRTETGSGSP-NH2	12	11.8
Compound 0439 (not fully specified (residue 21)) peptide: H[Aib]EGTFTSDVSSYLEEQAARKFIEWLVRGRGEASELSTAALGRLSAELHELATLPRTETGSGSP-NH2	8.3	10.7
Compound 0474 (peptide) peptide: HAEGTFTSDVSSYLEEK([AEEA-AEEA-γGlu-C20 diacid])AAREFIEWLVRGRGEASELSTAALGRLSAELHELATLPRTETGSGSP-NH2	2.9	21.8
Compound 0475 (peptide) peptide: HAEGTFTSDK([AEEA-AEEA-γGlu-C16 diacid])SSYLEEK([AEEA-AEEA-γGlu-C16 diacid])AAREFIEWLVRGRGEASELSTAALGRLSAELHELATLPRTETGSGSP-NH2	70.4	66.8
Compound 0435 (peptide) peptide: HWEGTFTSDVSSYLEEQAAK([εLys-AEEA-AEEA-γGlu-Trx-C20 diacid])EFIEWLVRGRGEASELSTAALGRLSAELHELATLPRTETGSGSP-NH2	92.4	22.3
Compound 0433 (peptide) peptide: HWEGTFTSDK([εLys-AEEA-AEEA-γGlu-Trx-C20 diacid])SSYLEEQAAREFIEWLVRGRGEASELSTAALGRLSAELHELATLPRTETGSGSP-NH2	30.7	12.9
Compound 0512 (peptide) peptide: H[Aib]EGTFTSDVSSYLEEQAAREFIAWLVRGRK([AEEA-AEEA-γGlu-Trx-C20 diacid])GGEASELSTAALGRLSAELHELATLPRTETGSGSP-NH2	7.6	10.8
Compound 0473 (peptide) peptide: HWEGTFTSDVSSYLEEK([AEEA-AEEA-γGlu-C20 diacid])AAREFIEWLVRGRGEASELSTAALGRLSAELHELATLPRTETGSGSP-NH2	3.1	16.2
Compound 0436 (not fully specified (residue 20)) peptide: H[Aib]EGTFTSDVSSYLEEQAAKEFIEWLVRGRGEASELSTAALGRLSAELHELATLPRTETGSGSP-NH2	15.2	12.3
Compound 0434 (peptide) peptide: HWEGTFTSDVSSYLEEK([εLys-AEEA-AEEA-γGlu-Trx-C20 diacid])AAREFIEWLVRGRGEASELSTAALGRLSAELHELATLPRTETGSGSP-NH2	11.8	13.9
Compound 0503 (peptide) peptide: H[Aib]EGTFTSDVSSYLEEQAAREFIEWLVRGRK([AEEA-AEEA-γGlu-Trx-C20 diacid])GGGGEASELSTAALGRLSAELHELATLPRTETGSGSP-NH2	6.5	7.7
Compound 0516 (not fully specified (residue 21)) peptide: H[Aib]EGTFTSDVSK([AEEA-AEEA-γGlu-C16 diacid])YLEEQAARKFIAWLVRGRGGGGGEASELSTAALGRLSAELHELATLPRTETGSGSP-NH2	3.3	8.9
Compound 0051 (peptide) peptide: [Desaminohistidyl]AEGTFTSDVSSYLEEQAAREFIAWLVRGRK([AEEA-AEEA-γGlu-C18 diacid])EASELSTAALGRLSAELHELATLPRTETGSGSP-NH2	14.3	19.5
Compound 0511 (peptide) peptide: H[Aib]EGTFTSDVSRYLEEQAAREFIEWLVRGRK([AEEA-AEEA-γGlu-Trx-C20 diacid])GGGGEASELSTAALGRLSAELHELATLPRTETGSGSP-NH2	8.8	8.4
Compound 0052 (peptide) peptide: H[Aib]EGTFTSDVSSYLEGQAAK([AEEA-AEEA-γGlu-C18 diacid])EFIAWLVRGRGGGGGGGGGEASELSTAALGRLSAELHELATLPRTETGSGSP-NH2	17	19.4
Compound 0438 (not fully specified (residue 31)) peptide: H[Aib]EGTFTSDVSSYLEEQAAREFIEWLVRGRKEASELSTAALGRLSAELHELATLPRTETGSGSP-NH2	11.8	27.5
Compound 0502 (peptide) peptide: H[Aib]EGTFTSDVSSYLEEQAAREFIAWLVRGRK([AEEA-AEEA-γGlu-C20 diacid])GGGGEASELSTAALGRLSAELHELATLPRTETGSGSP-NH2	8.4	9
Compound 0504 (peptide) peptide: H[Aib]EGTFTSDVSSYLEEQAAREFIAWLVRGRPK([AEEA-AEEA-γGlu-Trx-C20 diacid])GGGGEASELSTAALGRLSAELHELATLPRTETGSGSP-NH2	8.3	6
Compound 0528 (peptide) peptide: H[Aib]EGTFTSDVSK([AEEA-AEEA-γGlu-C16 diacid])YLEEQAAREFIAWLVRGRK([AEEA-AEEA-γGlu-C16 diacid])GGGGEASELSTAALGRLSAELHELATLPRTETGSGSP-NH2	3.8	22
Compound 0509 (peptide) peptide: H[Aib]EGTFTSDVSSYLEEQAARK([AEEA-AEEA-γGlu-C16 diacid])FIAWLVRGRGGGGGEASELSTAALGRLSAELHK([AEEA-AEEA-γGlu-C16 diacid])LATLPRTETGSGSP-NH2	7.1	29.9
Compound 0518 (peptide) peptide: H[Aib]EGTFTSDVSK([AEEA-AEEA-γGlu-Trx-C20 diacid])YLEEQAAREFIAWLVRGRGGGGGEASELSTAALGRLSAELHELATLPRTETGSGSP-NH2	3.4	4.4
Compound 0483 (peptide) peptide: H[Aib]EGTFTSDVSK([AEEA-AEEA-γGlu-C16 diacid])YLEEQAVREFIAK([AEEA-AEEA-γGlu-C16 diacid])LVRGRGGGEASELSTAALGRLSAELHELATLPRTETGSGSP-NH2	33.7	36.8
Compound 0431 (peptide) peptide: HAEGTFTSDK([AEEA-AEEA-γGlu-Trx-C20 diacid])SSYLEEQAAREFIEWLVRGRGEASELSTAALGRLSAELHELATLPRTETGSGSP-NH2	10.9	11.9
Compound 0482 (peptide) peptide: HAEGTFTSDVSK([AEEA-AEEA-γGlu-C16 diacid])YLEEQAVREFIAK([AEEA-AEEA-γGlu-C16 diacid])LVRGRGGGEASELSTAALGRLSAELHELATLPRTETGSGSP-NH2	36.5	31.8
Compound 0506 (not fully specified (residue 31)) peptide: H[Aib]EGTFTSDVSSYLEEQAAREFIAWLVRGRKGGGGEASELSTAALGRLSAELHELATLPRTETGSGSP-NH2	5.8	9.8
